The target in this experiment is SM α-actin (Homo sapiens, UniProt P62736). The experiment is described as follows: TIRF microscopy polymerization assay.

B1: MRTF-A (protein)
chain: MPPLKSPAAFHEQRRSLERARTEDYLKRKIRSRPERSELVRMHILEETSAEPSLQAKQLKLKRARLADDLNEKIAQRPGPMELVEKNILPVESSLKEAIIVGQVNYPKVADSSSFDEDSSDALSPEQPASHESQGSVPSPLEARVSEPLLSATSASPTQVVSQLPMGRDSREMLFLAEQPPLPPPPLLPPSLTNGTTIPTAKSTPTLIKQSQPKSASEKSQRSKKAKELKPKVKKLKYHQYIPPDQKQDRGAPPMDSSYAKILQQQQLFLQLQILNQQQQQHHNYQAILPAPPKSAGEALGSSGTPPVRSLSTTNSSSSSGAPGPCGLARQNSTSLTGKPGALPANLDDMKVAELKQELKLRSLPVSGTKTELIERLRAYQDQISPVPGAPKAPAATSILHKAGEVVVAFPAARLSTGPALVAAGLAPAEVVVATVASSGVVKFGSTGSTPPVSPTPSERSLLSTGDENSTPGDTFGEMVTSPLTQLTLQASPLQILVKEEGPRAGSCCLSPGGRAELEGRDKDQMLQEKDKQIEALTRMLRQKQQLVERLKLQLEQEKRAQQPAPAPAPLGTPVKQENSFSSCQLSQQPLGPAHPFNPSLAAPATNHIDPCAVAPGPPSVVVKQEALQPEPEPVPAPQLLLGPQGPSLIKGVAPPTLITDSTGTHLVLTVTNKNADSPGLSSGSPQQPSSQPGSPAPAPSAQMDLEHPLQPLFGTPTSLLKKEPPGYEEAMSQQPKQQENGSSSQQMDDLFDILIQSGEISADFKEPPSLPGKEKPSPKTVCGSPLAAQPSPSAELPQAAPPPPGSPSLPGRLEDFLESSTGLPLLTSGHDGPEPLSLIDDLHSQMLSSTAILDHPPSPMDTSELHFVPEPSSTMGLDLADGHLDSMDWLELSSGGPVLSLAPLSTTAPSLFSTDFLDGHDLQLHWDSCL
The molecule B1 registered a Kd of 3.3 µM.
